According to patent US20070197431A1 (published 2007):

Experiments:
[1] = molecular target: T1, human ErbB2 (human, UniProt P04626 23-1255); experiment: co-immunoprecipitation from co-infected Sf9 cells, anti-FLAG blot
From the text: (§1) Baculovirus encoding Nrdp1 tagged at its amino terminus with FLAG epitope was created as described previously (Guy, P. M., et al., Proc. Natl. Acad. Sci USA., 91:8132-36 ((1994)). Baculoviruses encoding human EGF receptor, human ErbB2, bovine ErbB3 or human ErbB4 have been described previously (Carraway, K. L., III, et al., Nature, 387:512-16 (1997)). For co-immunoprecipitation experiments Sf9 cells were infected with receptor viruses and co-infected either wild type or Nrdp1 baculovirus. 48 hours after infection cleared NP-40 lysates were immunoprecipitated with receptor antibodies and blotted with antibodies directed to receptors or FLAG epitope as described above.

[2] = molecular target: T2, human EGF receptor (human, UniProt P00533 25-1210); experiment: as above
From the text: as §1

[3] = molecular target: T1, human ErbB2; experiment: GST pull-down from Sf9 lysates, receptor blot
Protocol: (§2) For pull-down experiments receptors were expressed in Sf9 insect cells, cleared lysates were incubated for 1.5 hours with 3 μg immobilized GST or GST-32, and beads were washed as previously described (Carraway, K. L., III, et al., Nature, 387:512-16 (1997)). MDA-MB-453 cells were treated for 5 minutes without or with 10 nM NRG1β, lysed as previously described (Sweeney, C., et al., J. Biol. Chem., 275:19803-07 (2000)), and cleared lysates were incubated with GST and GST-32 as above. Precipitated proteins were resolved by 8% SDS-PAGE, transferred to nitrocellulose and visualized by blotting with anti-phosphotyrosine (RC20, Transduction Laboratories) or anti-receptor antibodies.
(§3) To confirm the specificity of the interaction we employed a GST fusion of clone 32 in receptor pull-down experiments. A GST fusion of clone 32 was used instead of full-length Nrdp1 because we observed that GST-Nrdp1 is insoluble in bacteria. We have expressed each of the ErbB family members in Sf9 cells (Carraway, K. L., III, et al., Nature, 387:512-16 (1997)), incubated cleared lysates with immobilized GST or GST-32, and analyzed associated receptors by blotting precipitates with receptor-specific antibodies. We again observed that clone 32 is capable of physically interacting with ErbB3 and ErbB4, but not EGF receptor or ErbB2.

[4] = molecular target: T2, human EGF receptor; experiment: GST pull-down from Sf9 lysates, receptor blot
Protocol: as §2, §3

B1: Nrdp1 tagged at its amino terminus with FLAG epitope (baculovirus, Sf9 insect cells) (other)
chain: DYKDDDDKMGYDVTRFQGDVDEDLICPICSGVLEEPVQAPHCEHAFCNACITQWFSQQQTCPVDRSVVTVAHLRPVPRIMRNMLSKLQIACDNAVFGCSAVVRLDNLMSHLSDCEHNPKRPVTCEQGCGLEMPKDELPNHNCIKHLRSVVQQQQTRIAELEKTSAEHKHQLAEQKRDIQLLKAYMRAIRSVNPNLQNLEETIEYNEILEWVNSLQPARVTRWGGMISTPDAVLQAVIKRSLVESGCPASIVNELIENAHERSWPQGLATLETRQMNRRYYENYVAKRIPGKQAVVVMACENQHMGDDMVQEPGLVMIFAHGVEEI
notes: Construct used for the Sf9 co-immunoprecipitations; also called FLAG-Nrdp1; neuregulin receptor degradation protein-1
[1]
  binding result: no binding
[2]
  binding result: no binding

B2: GST fusion protein of clone 32 encompassing Nrdp1 residues I135 to I317 (other)
chain: IKHLRSVVQQQQTRIAELEKTSAEHKHQLAEQKRDIQLLKAYMRAIRSVNPNLQNLEETIEYNEILEWVNSLQPARVTRWGGMISTPDAVLQAVIKRSLVESGCPASIVNELIENAHERSWPQGLATLETRQMNRRYYENYVAKRIPGKQAVVVMACENQHMGDDMVQEPGLVMIFAHGVEEI
notes: Expressed in bacteria and immobilized on beads (3 ug) for the pull-downs; also called GST-32; GST fusion of clone 32; not shown: glutathione S-transferase encoded by the pGEX vector
[3]
  binding result: no binding (tested: 3 ug immobilized GST-32)
[4]
  binding result: no binding (tested: 3 ug immobilized GST-32)
